Source: the Human Domainome abundance scans (Beltran et al. 2025)
± gives the uncertainty stated by the source.

B1: Intersectin-1, residues 909 to 971; numbered along this chain, Q15811 (parent)
chain: QGEKVEGLQAQALYPWRAKKDNHLNFNKNDVITVLEQQDMWWFGEVQGQKGWFPKSYVKLISG

Variants of: B1
Assay: abundance fitness (aPCA) (normalised: wild type 0, dead -1); higher = more abundant; growth selection in yeast, the domain comes from the species named
Conditions: Homo sapiens

Row | Variant | abundance fitness
1 | QGEKVEGLQAHALYPWRAKKDNHLNFNKNDVITVLEQQDMWWFGEVQGQKGWFPKSYVKLISG | -0.131 ± 0.29
2 | QGEKVEGLQAKALYPWRAKKDNHLNFNKNDVITVLEQQDMWWFGEVQGQKGWFPKSYVKLISG | -0.142 ± 0.12
3 | QGEKVEGLQACALYPWRAKKDNHLNFNKNDVITVLEQQDMWWFGEVQGQKGWFPKSYVKLISG | -0.459 ± 0.21
4 | QGEKVEGLQAAALYPWRAKKDNHLNFNKNDVITVLEQQDMWWFGEVQGQKGWFPKSYVKLISG | -0.239 ± 0.094
5 | QGEKVEGLQALALYPWRAKKDNHLNFNKNDVITVLEQQDMWWFGEVQGQKGWFPKSYVKLISG | -0.247 ± 0.098
6 | QGEKVEGLQAGALYPWRAKKDNHLNFNKNDVITVLEQQDMWWFGEVQGQKGWFPKSYVKLISG | -0.498 ± 0.093
7 | QGEKVEGLQAEALYPWRAKKDNHLNFNKNDVITVLEQQDMWWFGEVQGQKGWFPKSYVKLISG | -0.33 ± 0.13
8 | QGEKVEGLQADALYPWRAKKDNHLNFNKNDVITVLEQQDMWWFGEVQGQKGWFPKSYVKLISG | -0.728 ± 0.47
9 | QGEKVEGLQMQALYPWRAKKDNHLNFNKNDVITVLEQQDMWWFGEVQGQKGWFPKSYVKLISG | -0.223 ± 0.15
10 | QGEKVEGLQGQALYPWRAKKDNHLNFNKNDVITVLEQQDMWWFGEVQGQKGWFPKSYVKLISG | -0.212 ± 0.07
11 | QGEKVEGLQTQALYPWRAKKDNHLNFNKNDVITVLEQQDMWWFGEVQGQKGWFPKSYVKLISG | -0.746 ± 0.24
12 | QGEKVEGLQWQALYPWRAKKDNHLNFNKNDVITVLEQQDMWWFGEVQGQKGWFPKSYVKLISG | -0.183 ± 0.14
13 | QGEKVEGLQRQALYPWRAKKDNHLNFNKNDVITVLEQQDMWWFGEVQGQKGWFPKSYVKLISG | -0.807 ± 0.17
14 | QGEKVEGLQSQALYPWRAKKDNHLNFNKNDVITVLEQQDMWWFGEVQGQKGWFPKSYVKLISG | -0.506 ± 0.12
15 | QGEKVEGLQVQALYPWRAKKDNHLNFNKNDVITVLEQQDMWWFGEVQGQKGWFPKSYVKLISG | 0.095 ± 0.093
16 | QGEKVEGLQYQALYPWRAKKDNHLNFNKNDVITVLEQQDMWWFGEVQGQKGWFPKSYVKLISG | 0.003 ± 0.24
17 | QGEKVEGLQLQALYPWRAKKDNHLNFNKNDVITVLEQQDMWWFGEVQGQKGWFPKSYVKLISG | -0.272 ± 0.15
18 | QGEKVEGLQKQALYPWRAKKDNHLNFNKNDVITVLEQQDMWWFGEVQGQKGWFPKSYVKLISG | -0.152 ± 0.16
19 | QGEKVEGLQCQALYPWRAKKDNHLNFNKNDVITVLEQQDMWWFGEVQGQKGWFPKSYVKLISG | -0.174 ± 0.36
20 | QGEKVEGLQEQALYPWRAKKDNHLNFNKNDVITVLEQQDMWWFGEVQGQKGWFPKSYVKLISG | -0.821 ± 0.29
21 | QGEKVEGLHAQALYPWRAKKDNHLNFNKNDVITVLEQQDMWWFGEVQGQKGWFPKSYVKLISG | 0.011 ± 0.27
22 | QGEKVEGLEAQALYPWRAKKDNHLNFNKNDVITVLEQQDMWWFGEVQGQKGWFPKSYVKLISG | 0.008 ± 0.12

Row | Variant | abundance fitness
23 | QGEKVEGLPAQALYPWRAKKDNHLNFNKNDVITVLEQQDMWWFGEVQGQKGWFPKSYVKLISG | -0.17 ± 0.2
24 | QGEKVEGLCAQALYPWRAKKDNHLNFNKNDVITVLEQQDMWWFGEVQGQKGWFPKSYVKLISG | -0.109 ± 0.17
25 | QGEKVEGLWAQALYPWRAKKDNHLNFNKNDVITVLEQQDMWWFGEVQGQKGWFPKSYVKLISG | -0.109 ± 0.097
26 | QGEKVEGLNAQALYPWRAKKDNHLNFNKNDVITVLEQQDMWWFGEVQGQKGWFPKSYVKLISG | 0.012 ± 0.28
27 | QGEKVEGLYAQALYPWRAKKDNHLNFNKNDVITVLEQQDMWWFGEVQGQKGWFPKSYVKLISG | -0.047 ± 0.18
28 | QGEKVEGLKAQALYPWRAKKDNHLNFNKNDVITVLEQQDMWWFGEVQGQKGWFPKSYVKLISG | -0.015 ± 0.14
29 | QGEKVEGLSAQALYPWRAKKDNHLNFNKNDVITVLEQQDMWWFGEVQGQKGWFPKSYVKLISG | -0.083 ± 0.098
30 | QGEKVEGLFAQALYPWRAKKDNHLNFNKNDVITVLEQQDMWWFGEVQGQKGWFPKSYVKLISG | -0.159 ± 0.2
31 | QGEKVEGLVAQALYPWRAKKDNHLNFNKNDVITVLEQQDMWWFGEVQGQKGWFPKSYVKLISG | -0.093 ± 0.095
32 | QGEKVEGLMAQALYPWRAKKDNHLNFNKNDVITVLEQQDMWWFGEVQGQKGWFPKSYVKLISG | 0.095 ± 0.17
33 | QGEKVEGLIAQALYPWRAKKDNHLNFNKNDVITVLEQQDMWWFGEVQGQKGWFPKSYVKLISG | -0.172 ± 0.21
34 | QGEKVEGLLAQALYPWRAKKDNHLNFNKNDVITVLEQQDMWWFGEVQGQKGWFPKSYVKLISG | -0.133 ± 0.12
35 | QGEKVEGLTAQALYPWRAKKDNHLNFNKNDVITVLEQQDMWWFGEVQGQKGWFPKSYVKLISG | -0.076 ± 0.14
36 | QGEKVEGLAAQALYPWRAKKDNHLNFNKNDVITVLEQQDMWWFGEVQGQKGWFPKSYVKLISG | -0.07 ± 0.092
37 | QGEKVEGLGAQALYPWRAKKDNHLNFNKNDVITVLEQQDMWWFGEVQGQKGWFPKSYVKLISG | -0.331 ± 0.071
38 | QGEKVEGRQAQALYPWRAKKDNHLNFNKNDVITVLEQQDMWWFGEVQGQKGWFPKSYVKLISG | -0.087 ± 0.072
39 | QGEKVEGWQAQALYPWRAKKDNHLNFNKNDVITVLEQQDMWWFGEVQGQKGWFPKSYVKLISG | -0.152 ± 0.11
40 | QGEKVEGTQAQALYPWRAKKDNHLNFNKNDVITVLEQQDMWWFGEVQGQKGWFPKSYVKLISG | -0.039 ± 0.18
41 | QGEKVEGSQAQALYPWRAKKDNHLNFNKNDVITVLEQQDMWWFGEVQGQKGWFPKSYVKLISG | -0.117 ± 0.11
42 | QGEKVEGYQAQALYPWRAKKDNHLNFNKNDVITVLEQQDMWWFGEVQGQKGWFPKSYVKLISG | 0.112 ± 0.3
43 | QGEKVEGVQAQALYPWRAKKDNHLNFNKNDVITVLEQQDMWWFGEVQGQKGWFPKSYVKLISG | 0.14 ± 0.082
